Article PMC4033772 (The Journal of Cell Biology, 2014)

Target: the molecule itself
Test: SEC + other: sucrose gradient sedimentation

B1: FLAG-tagged Stu1 (natural protein, S. cerevisiae, UniProt P38198 1-1513, looked up)
chain: MSSFNNETNNNSNTNTHPDDSFPLYTVFKDESVPIEEKMALLTRFKGHVKKELVNESSIQAYFAALLFISGHYAYRSYPRLIFLSHSSLCYLIKRVAMQSPVQFNDTLVEQLLNHLIFELPNEKKFWLASIKAIEAIYLVNPSKIQAILANFLRRPSENQNGDYLNRIKSTLLTIDELIQINEKNNSNHLQLLRFFMLSFTNLLNNNLNEHANDDNNNVIIELIFDIMYKYLKMDDENSQDLIDGFINDLEVEKFKQKFISLAKSQDQHGSQEDKSTLFDEEYEFQLLLAEAKLPQLSNNLSSKDPAMKKNYESLNQLQQDLENLLAPFQSVKETEQNWKLRQSNIIELDNIISGNIPKDNPEEFVTVIKEVQLIELISRATSSLRTTLSLTALLFLKRLIHILNDQLPLSILDQIFVIFKNLLSSTKKISSQTAFHCLITLIIDINHFHNKLFQLSFLLINEKTVTPRFCSAILLRSFLIKFNDSNLSLNNSNTTSPTSKLENNIIYIEEWLKKGISDSQTTVREAMRLTFWYFYKCYPTNAKRLLSSSFSPQLKKATELAIPAHLNINYQVSRVSSTASASSATSRLYSHSSNNSSRKTSLLEQKRNYPSYAQPTQSSSTSLLNAPAVTAGGSVIASKLSNKLKTNLRSTSEYSSKENEKRARHHDSMNSVSNSNTKDNNNVTKRKVSAPPSSTAATKVSENYTNFDDFPSNQIDLTDELSNSYSNPLIKKYMDKNDVSMSSSPISLKGSNKLGEYETLYKKFNDASFPAQIKDALQYLQKELLLTSQQSSSAPKFEFPMIMKKLRQIMIKSPNDFKPFLSIEKFTNGVPLNYLIELYSINSFDYAEILKNRMNPEKPYELTNLIITIADLFNFLNANNCPNDFKLYYMKYKTTFFNYNFKLLLEIFRNLNIKHDNTLRSGTNDLMPKISMILFQIYGKEFDYTCYFNLIFEIYKFDNNRFNKLLADFDIVSTKMKICHELEKKDANFKVEDIISRESSVSFTPIDNKKSEGDEESDDAVDENDVKKCMEMTMINPFKNLETDKTLELKNNVGKRTSSTDSVVIHDDNDKDKKLSEMTKIVSVYQLDQPNPAKEEDDIDMENSQKSDLNLSEIFQNSGENTERKLKDDNEPTVKFSTDPPKIINEPEKLIGNGNENEKPDLETMSPIKINGDENMGQKQRITVKRERDVALTEQDINSKKMKLVNNKKSEKMHLLIMDNFPRDSLTVYEISHLLMVDSNGNTLMDFDVYFNHMSKAINRIKSGSFTMKHINYLIEPLITCFQNQKMTDWLTNENGFDELLDVAIMLLKSTDDTPSIPSKISSKSIILVHCLLVWKKFLNTLSENADDDGVSVRMCFEEVWEQILLMLNKFSDYGNEIYKLAQEFRDSLMLSHFFKKHSATRILSMLVTEIQPDTAGVKETFLIETLWKMLQSPTICQQFKKSNISEIIQTMSYFIMGTDNTSWNFTSAVVLARCLRVLQTTPDYTEQETERLFDCLPKNVFKMIMFIASNE
stoichiometry N: 2
